{
  "source": "patent US20180037657A1",
  "about": "(AGENSYS, published 2018)",
  "key": {"[1]": {"target": "FLT3 on the cell surface (human leukemia cell lines and patient cells) (human) (UniProt P36888)", "sequence (P36888 27-993 T227M limits assumed)": "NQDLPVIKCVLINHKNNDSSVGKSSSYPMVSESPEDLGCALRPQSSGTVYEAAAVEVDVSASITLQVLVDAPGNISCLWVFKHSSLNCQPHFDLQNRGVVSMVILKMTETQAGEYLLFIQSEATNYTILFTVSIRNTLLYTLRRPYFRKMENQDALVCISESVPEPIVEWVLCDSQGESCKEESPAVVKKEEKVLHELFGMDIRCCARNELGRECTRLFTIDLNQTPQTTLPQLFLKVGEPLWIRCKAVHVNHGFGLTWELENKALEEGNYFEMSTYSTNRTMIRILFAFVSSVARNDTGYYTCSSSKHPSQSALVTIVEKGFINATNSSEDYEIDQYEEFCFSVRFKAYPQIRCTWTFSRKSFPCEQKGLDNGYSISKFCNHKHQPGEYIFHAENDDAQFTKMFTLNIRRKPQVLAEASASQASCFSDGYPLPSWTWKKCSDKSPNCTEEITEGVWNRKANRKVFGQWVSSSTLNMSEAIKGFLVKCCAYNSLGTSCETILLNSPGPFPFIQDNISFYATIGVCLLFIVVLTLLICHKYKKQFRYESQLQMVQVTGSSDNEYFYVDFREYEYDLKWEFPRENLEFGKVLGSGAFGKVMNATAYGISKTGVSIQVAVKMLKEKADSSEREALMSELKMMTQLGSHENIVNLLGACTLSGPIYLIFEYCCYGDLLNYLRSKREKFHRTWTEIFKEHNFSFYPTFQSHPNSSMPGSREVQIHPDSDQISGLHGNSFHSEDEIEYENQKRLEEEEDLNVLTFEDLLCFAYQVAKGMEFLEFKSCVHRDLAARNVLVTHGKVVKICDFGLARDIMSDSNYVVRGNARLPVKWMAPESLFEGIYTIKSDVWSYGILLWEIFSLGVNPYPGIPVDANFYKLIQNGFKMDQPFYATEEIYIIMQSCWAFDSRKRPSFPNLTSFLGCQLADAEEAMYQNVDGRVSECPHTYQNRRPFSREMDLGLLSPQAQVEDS", "experiment": "flow cytometry, biotinylated antibody 10 ug/ml + Streptavidin-PE, SKM-1 cells (AML)"}, "[2]": {"target": "FLT3 on the cell surface (human leukemia cell lines and patient cells) (human) (UniProt P36888)", "experiment": "flow cytometry, biotinylated antibody 10 ug/ml + Streptavidin-PE, THP-1 cells (AML)"}, "[3]": {"target": "FLT3 on the cell surface (human leukemia cell lines and patient cells) (human) (UniProt P36888)", "experiment": "flow cytometry, biotinylated antibody 10 ug/ml + Streptavidin-PE, NALM-1 cells (CML)"}, "[4]": {"target": "FLT3 on the cell surface (human leukemia cell lines and patient cells) (human) (UniProt P36888)", "experiment": "flow cytometry, biotinylated antibody 10 ug/ml + Streptavidin-PE, MV-4-11 cells (AML)"}, "[5]": {"target": "FLT3 on the cell surface (human leukemia cell lines and patient cells) (human) (UniProt P36888)", "experiment": "flow cytometry, biotinylated antibody 10 ug/ml + Streptavidin-PE, PL-21 cells (AML)"}, "[6]": {"target": "FLT3 on the cell surface (human leukemia cell lines and patient cells) (human) (UniProt P36888)", "experiment": "flow cytometry, biotinylated antibody 10 ug/ml + Streptavidin-PE, REH cells (ALL)"}, "[7]": {"target": "FLT3 on the cell surface (human leukemia cell lines and patient cells) (human) (UniProt P36888)", "experiment": "flow cytometry, biotinylated antibody 10 ug/ml + Streptavidin-PE, MONOMAC-1 cells (AML)"}, "[8]": {"target": "FLT3 on the cell surface (human leukemia cell lines and patient cells) (human) (UniProt P36888)", "experiment": "flow cytometry, biotinylated antibody 10 ug/ml + Streptavidin-PE, RS4;11 cells (B-ALL)"}, "[9]": {"target": "FLT3 on the cell surface (human leukemia cell lines and patient cells) (human) (UniProt P36888)", "experiment": "flow cytometry, biotinylated antibody 10 ug/ml + Streptavidin-PE, OCI-AML2 cells (AML)"}, "[10]": {"target": "FLT3 on the cell surface (human leukemia cell lines and patient cells) (human) (UniProt P36888)", "experiment": "flow cytometry, biotinylated antibody 10 ug/ml + Streptavidin-PE, SEM cells (B-ALL)"}, "[11]": {"target": "FLT3 on the cell surface (human leukemia cell lines and patient cells) (human) (UniProt P36888)", "experiment": "flow cytometry, biotinylated antibody 10 ug/ml + Streptavidin-PE, MOLM-13 cells (AML)"}, "[12]": {"target": "FLT3 on the cell surface (human leukemia cell lines and patient cells) (human) (UniProt P36888)", "experiment": "flow cytometry, biotinylated antibody 10 ug/ml + Streptavidin-PE, EOL-1 cells (AML)"}, "[13]": {"target": "T1, FLT3 on the cell surface (human leukemia cell lines and patient cells) (human, UniProt P36888 27-993)", "T1 construct": "Endogenous or recombinant FLT3 on cells; also called Fms like tyrosine kinase 3 receptor; Flk2", "T1 sequence (P36888 27-993 T227M limits assumed)": "as above", "experiment": "flow cytometry, biotinylated antibody 10 ug/ml + Streptavidin-PE, EOL-1 cells (AML)", "procedure": "(§1) CHv62.21 was tested for binding to AML and B-ALL cell lines grown in vitro. (See, Table VII). Briefly, CHv62.21 and an isotype matched control antibody were biotinylated using NHS LC biotin. In vitro, exponentially grown cancer cell lines were used for all experiments. Cells were harvested by and washed by centrifugation. Cells were Fc blocked to reduce non-specific binding. Antibodies were diluted to 10 ug/ml final concentration and co-incubated with cells at 4° C. for 1 hour. At the end of the incubation, cells were washed and incubated with secondary detection Streptavidin-PE antibody at a final 1:200 (2.5 ug/ml) dilution for 1 hour at 4° C. After washing un-bound secondary antibody, cells were analyzed by FACS and geometric mean fluorescence was determined and reported. Fluorescence ratio was calculated as follows: Geo mean cHv62.21/Geo mean isotype control=MFR, a measure of fold expression above isotype control."}, "[14]": {"target": "T1, FLT3 on the cell surface (human …)", "experiment": "flow cytometry, biotinylated antibody 10 ug/ml + Streptavidin-PE, MOLM-13 cells (AML)", "procedure": "as §1"}, "[15]": {"target": "T1, FLT3 on the cell surface (human …)", "experiment": "flow cytometry, biotinylated antibody 10 ug/ml + Streptavidin-PE, NALM-1 cells (CML)", "procedure": "as §1"}, "[16]": {"target": "T1, FLT3 on the cell surface (human …)", "experiment": "flow cytometry, biotinylated antibody 10 ug/ml + Streptavidin-PE, SKM-1 cells (AML)", "procedure": "as §1"}, "[17]": {"target": "T1, FLT3 on the cell surface (human …)", "experiment": "flow cytometry, biotinylated antibody 10 ug/ml + Streptavidin-PE, RS4;11 cells (B-ALL)", "procedure": "as §1"}, "[18]": {"target": "T1, FLT3 on the cell surface (human …)", "experiment": "flow cytometry, biotinylated antibody 10 ug/ml + Streptavidin-PE, THP-1 cells (AML)", "procedure": "as §1"}, "[19]": {"target": "T1, FLT3 on the cell surface (human …)", "experiment": "flow cytometry, biotinylated antibody 10 ug/ml + Streptavidin-PE, REH cells (ALL)", "procedure": "as §1"}, "[20]": {"target": "T1, FLT3 on the cell surface (human …)", "experiment": "flow cytometry, biotinylated antibody 10 ug/ml + Streptavidin-PE, OCI-AML2 cells (AML)", "procedure": "as §1"}, "[21]": {"target": "T1, FLT3 on the cell surface (human …)", "experiment": "flow cytometry, biotinylated antibody 10 ug/ml + Streptavidin-PE, MV-4-11 cells (AML)", "procedure": "as §1"}, "[22]": {"target": "T1, FLT3 on the cell surface (human …)", "experiment": "flow cytometry, biotinylated antibody 10 ug/ml + Streptavidin-PE, MONOMAC-1 cells (AML)", "procedure": "as §1"}, "[23]": {"target": "T1, FLT3 on the cell surface (human …)", "experiment": "flow cytometry, biotinylated antibody 10 ug/ml + Streptavidin-PE, PL-21 cells (AML)", "procedure": "as §1"}, "[24]": {"target": "T1, FLT3 on the cell surface (human …)", "experiment": "flow cytometry, biotinylated antibody 10 ug/ml + Streptavidin-PE, SEM cells (B-ALL)", "procedure": "as §1"}},
  "data": [
    {"molecule": "isotype matched control antibody (Table VI)", "values": [
      {"measurement": "Geometric Mean fluorescence", "setting": "[1]", "value": 445},
      {"measurement": "Geometric Mean fluorescence", "setting": "[2]", "value": 474},
      {"measurement": "Geometric Mean fluorescence", "setting": "[3]", "value": 262},
      {"measurement": "Geometric Mean fluorescence", "setting": "[4]", "value": 366},
      {"measurement": "Geometric Mean fluorescence", "setting": "[5]", "value": 570},
      {"measurement": "Geometric Mean fluorescence", "setting": "[6]", "value": 235},
      {"measurement": "Geometric Mean fluorescence", "setting": "[7]", "value": 338},
      {"measurement": "Geometric Mean fluorescence", "setting": "[8]", "value": 213},
      {"measurement": "Geometric Mean fluorescence", "setting": "[9]", "value": 329},
      {"measurement": "Geometric Mean fluorescence", "setting": "[10]", "value": 212},
      {"measurement": "Geometric Mean fluorescence", "setting": "[11]", "value": 320},
      {"measurement": "Geometric Mean fluorescence", "setting": "[12]", "value": 281}
    ]},
    {"molecule": "CHv62.21 MAb (antibody, human IgG1, kappa, V domains shown, also called cHv62-1b21.1) VH: EVQLVESGGGLVRPGGSLRLSCAASGFTFSGYSINWVRQAPGKGLEWVSSISSSSNYIYYADSVKGRFTISRDNAKNSLYLQMNSLRAEDTAVYYCAREGFIAGTTFDAFDIWGQGTMVTVSS VL: DIQMTQSPSSLSASVGDRVTITCRASQGIRNDLGWYQQKPGKAPKRLIYAASSLQSGVPSRFSGSGSGTEFTLTISSLQPEDFATYYCLQHNGFPYTFGQGTKLEIKR", "values": [
      {"measurement": "MFR (Geo mean cHv62.21/Geo mean isotype control)", "setting": "[13]", "value": 50, "unit": "fold"},
      {"measurement": "MFR (Geo mean cHv62.21/Geo mean isotype control)", "setting": "[14]", "value": 44, "unit": "fold"},
      {"measurement": "MFR (Geo mean cHv62.21/Geo mean isotype control)", "setting": "[15]", "value": 49, "unit": "fold"},
      {"measurement": "MFR (Geo mean cHv62.21/Geo mean isotype control)", "setting": "[16]", "value": 7, "unit": "fold"},
      {"measurement": "MFR (Geo mean cHv62.21/Geo mean isotype control)", "setting": "[17]", "value": 86, "unit": "fold"},
      {"measurement": "MFR (Geo mean cHv62.21/Geo mean isotype control)", "setting": "[18]", "value": 42, "unit": "fold"},
      {"measurement": "MFR (Geo mean cHv62.21/Geo mean isotype control)", "setting": "[19]", "value": 69, "unit": "fold"},
      {"measurement": "MFR (Geo mean cHv62.21/Geo mean isotype control)", "setting": "[20]", "value": 17, "unit": "fold"},
      {"measurement": "MFR (Geo mean cHv62.21/Geo mean isotype control)", "setting": "[21]", "value": 8, "unit": "fold"},
      {"measurement": "MFR (Geo mean cHv62.21/Geo mean isotype control)", "setting": "[22]", "value": 34, "unit": "fold"},
      {"measurement": "MFR (Geo mean cHv62.21/Geo mean isotype control)", "setting": "[23]", "value": 7, "unit": "fold"},
      {"measurement": "MFR (Geo mean cHv62.21/Geo mean isotype control)", "setting": "[24]", "value": 623, "unit": "fold"}
    ]}
  ]
}
